Measured values reported in article PMC9263355 (2022).

Molecular target: 4-1BB (Homo sapiens, UniProt Q07011)
Assay: fluorescence anisotropy

Chain of 4-1BB (Q07011 24-255): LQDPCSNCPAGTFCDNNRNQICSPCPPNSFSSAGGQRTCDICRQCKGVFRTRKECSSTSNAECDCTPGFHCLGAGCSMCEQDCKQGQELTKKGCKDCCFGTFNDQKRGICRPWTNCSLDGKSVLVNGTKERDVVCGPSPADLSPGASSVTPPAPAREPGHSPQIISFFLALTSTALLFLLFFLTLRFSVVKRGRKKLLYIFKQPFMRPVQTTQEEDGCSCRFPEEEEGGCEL

Kd: ~1500 nM
B1: Galectin-9N N-terminal CRD (protein)
chain: MAFSGSQAPYLSPAVPFSGTIQGGLQDGLQITVNGTVLSSSGTRFAVNFQTGFSGNDIAFHFNPRFEDGGYVVCNTRQNGSWGPEERKTHMPFQKGMPFDLCFLVQSSDFKVMVNGILFVQYFHRVPFHRVDTISVNGSVQLSYISFQ
